Reference: patent US6312690, “Monoclonal recombinant anti-rhesus D (D7C2) antibody” (Institut Pasteur, dated 2001)
Residue numbers refer to the chain shown, from its start.

Experiments:
[1] = target: T1, Rhesus D antigen (human, UniProt Q02161)
T1 sequence: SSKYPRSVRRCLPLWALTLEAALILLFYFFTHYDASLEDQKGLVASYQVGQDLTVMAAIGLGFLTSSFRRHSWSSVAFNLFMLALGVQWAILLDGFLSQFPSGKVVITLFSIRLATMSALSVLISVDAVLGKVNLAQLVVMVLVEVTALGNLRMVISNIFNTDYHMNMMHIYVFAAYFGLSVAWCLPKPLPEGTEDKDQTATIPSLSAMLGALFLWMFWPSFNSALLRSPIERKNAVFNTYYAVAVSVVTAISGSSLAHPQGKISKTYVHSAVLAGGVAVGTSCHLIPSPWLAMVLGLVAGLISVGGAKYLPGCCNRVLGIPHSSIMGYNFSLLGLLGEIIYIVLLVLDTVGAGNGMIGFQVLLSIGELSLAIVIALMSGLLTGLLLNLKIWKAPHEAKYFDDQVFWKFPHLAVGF

[2] = target: T1, Rhesus D antigen; assay: agglutination titre on a pool of papain-treated R1/r red blood cells, one hour at 37° C.
[3] = target: T1, Rhesus D antigen; assay: agglutination of red blood cells

For “"irrelevant" recombinant antibody (IgG1, κ) directed against a protein other than the Rhesus antigen”, the % specific lysis (ADCC test, 51Cr release) (% specific lysis) [1] was 0.

B1: r-IgG-D7C2 recombinant monoclonal antibody (antibody, V domains shown)
VH: QVQLEQWGAGLLKPSETLSLTCTVYGGSFSGYYWSWIRQPPGKGLEWIGEINHSGSTNYNPSLKSRVTISVDTSKNQFSLKLNSVTAADTAVYYCARAPEYKWKYHGDWFDPWGQGTTVTVSS
VL: DIELTQDPAVSVALGQTVRITCQGDSLRTYYASWYQQKPGQAPVLVIYGKNNRPSGIPDRFSGSSSGNTASLTITGAQAEDEADYFCNSGGKVFGGGTKLTVLG
With B1 the titre (titre (1/x dilution)) [2] was 512 and the % specific lysis (ADCC test, 51Cr release) (% specific lysis) [1] was 93.3.

B2: IgM-D7C2 human parental monoclonal antibody (antibody, V domains shown)
VH: B1 VH with E5Q
VL: B1 VL with D1Q, I2S, E3V
B2: binds [3].
